Assays:
[1] = molecular target: Trypanosoma brucei haptoglobin-haemoglobin receptor, truncated N-terminal ligand-binding domain (residues 36-299) (Trypanosoma brucei brucei) (UniProt Q581F2); test: SPR
[2] = molecular target: Native (dimeric) human haptoglobin-haemoglobin complex (Hp 1-1 with Hb) (human) (UniProt P00738); test: SEC-MALS
[3] = molecular target: Native (dimeric) human haptoglobin-haemoglobin complex (Hp 1-1 with Hb) (human) (UniProt P00738); test: SEC-SAXS

Substance	Kd [1] [nM]	stoichiometry N (receptors per HpHb) [2]	stoichiometry N (receptors per HpHb) [3]
HpSPHb complex: serine protease domain of human haptoglobin (148-406) bound to a human haemoglobin alpha-beta dimer (from UniProt P00738 148-406)	700	–	–
HprSPHb complex: serine protease domain of human haptoglobin-related protein (90-348) bound to human haemoglobin (from UniProt P00739 90-348)	1700	–	–
Trypanosoma brucei haptoglobin-haemoglobin receptor, truncated N-terminal ligand-binding domain (residues 36-299) (from UniProt Q581F2 36-299)	–	2	2

From PMC4383175
